Key:
chicken lysozyme [1] = target: T1, chicken lysozyme (chicken, UniProt P00698 19-147); assay: ELISA, lysozyme-coated well (100 µg/ml), ~50 ng iMab per well, anti-VSV-HRP; urea-purified
T1 construct: Coated on ELISA plates (100 µg/ml) or immobilized on / passed over Eupergit columns

chicken lysozyme [2] = target: T1, chicken lysozyme; assay: ELISA on lysozyme, 100-fold dilution of the protein extract
Method: The microtiter plate was excessively washed with PBS (3 times), PBS+0.1% Tween-20 (3 times) and PBS (3 times).
After excessive washing using PBS (3 times), PBS+0.1% Tween-20 (3 times) and PBS (3 times), wells were incubated with 100 μl Turbo-TMB for 5 minutes. Reaction was stopped with 100 μl 2M H₂SO₄ and absorbtion was read at 450 nm using a microtiter plate reader (Biorad).

chicken lysozyme [3] = target: T1, chicken lysozyme; assay: ELISA

T1 sequence (P00698 19-147 limits assumed): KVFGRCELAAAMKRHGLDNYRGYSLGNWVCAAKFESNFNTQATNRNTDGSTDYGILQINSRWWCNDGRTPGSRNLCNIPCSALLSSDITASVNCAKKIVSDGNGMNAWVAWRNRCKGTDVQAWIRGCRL

Row | binding result (chicken lysozyme [3]) | Binder | Absorbtion (450 nm) (chicken lysozyme [1]) [A450] | ELISA signal over background signal (fold) (chicken lysozyme [2])
1 | – | iMab1602 (designed binder, not shown: C-terminal linker, VSV-tag and 6xHis-tag from vector CM126) AVKPVIGSKAPNFGENGDVKTIDRASGYTIGPTCGGVFFQGPTDDSTNVATINMGGGITYYGDSVKETFDIRRDNAKSTRTESYDDNQPEGLTEVKCAADSTIYASYYECGHGLSTGGYGYDVSSRLYGYDILVGTQ | 0.357 | –
2 | – | iMab1300 (designed binder, not shown: C-terminal linker, VSV-tag and 6xHis-tag from vector CM126) LQVDIKPSQGEISVGESKFFLCQASGYTIGPCISWFSPNGEKLNMGSSTLTIYNANIDDAGIYKCAADSTIYASYYECGHGLSTGGYGYQSEATVNVKIFQ | 0.325 | –
3 | – | iMab1302 (designed binder, not shown: C-terminal linker, VSV-tag and 6xHis-tag from vector CM126) VVKVVIKPSQNFIENGEDKKFTCRASGYTIGPKCIGWFSQNPEDDSTNVATINMGGGITYYGDSVKERFDIRRDNAKDTSTLSIDDAQPEDAGIYKCAADSTIYASYYECGHGLSTGGYGYDSEATVGVDIFVKLM | 0.345 | –
4 | – | iMab1202 (designed binder, also called iMab1202 (1EJ6); not shown: C-terminal linker, VSV-tag and 6xHis-tag from vector CM126) IVKLVMEKRGNFENGQDCKLTIRASGYTIGPACDGFFCQFPSDDSFSTEDNMGGGITVNDAMKPQFDIRRDNAKGTWTLSMDFQPEGIYEMQCAADSTIYASYYECGHGLSTGGYGYDNPVRLGGFDVDVPDV | 0.317 | –
5 | – | iMab111 (designed binder, not shown: C-terminal linker, VSV-tag and 6xHis-tag from vector CM126) NVKLVCKGGNFVENDDDLKLTCRAEGYTIGPYCMGWFRQAPNDDSTNVATINMGGGITYYGDSVKERFDIRRDNASNTVTLSMDDLQPEDSAEYNCAGDSTIYASYYECGHGLSTGGYGYDSHYRCQGTDVTVSS | 0.42 | ~20
6 | binds | iMab115 (designed binder, Expressed in E. coli (21 kD); also called iMab without glycosylation site) NVKLVEKGGNFVENDDDLKLTCRAEGYTIGPYCMGWFRQAPNDDSTNVATINMGGGITYYGDSVKERFDIRRDQASNTVTLSMDDLQPEDSAEYNCAGDSTIYASYYECGHGLSTGGYGYDSHYRGQGTDVTVSS | – | –
7 | – | iMab122 (designed binder, not shown: C-terminal linker, VSV-tag and 6xHis-tag from vector CM126) NVKLVEKGGNFVENDDDLKLTCRASGRTFSSRTMGWFRQAPNDDSTNVATIRWNGGSTYYTNYGDSVKERFDIRVDQASNTVTLSMDDLQPEDSAEYNCAGTDIGDGWSGRYDYRGQGTDVTVSS | 0.271 | –
